Patent US20250236682A1

Assays:
[1] = target: HER2 on human cancer cell lines (NCI-N87, BT474, SK-OV-3, SNU-1, SNU-5, SNU-601) (human) (UniProt P04626); assay: flow cytometry Fc load, SNU601 cells
[2] = target: human HER2 on CT26-HER2 cell line (Clone #2-60) (human) (UniProt P04626); assay: flow cytometry Fc load, CT26-HER2 (#2-60) cells
[3] = target: human FcγIIA (R&D systems, 1330-CD) (human) (UniProt P12318); assay: BLI, His-FcγRIIA on HIS1K sensor
[4] = target: human FcγRI (R&D systems, 1257-FC) (human) (UniProt P12314); assay: BLI, His-FcγRI on HIS1K sensor
human FcγRI (R&D systems, 1257-FC) (human), sequence (P12314 16-288 limits assumed): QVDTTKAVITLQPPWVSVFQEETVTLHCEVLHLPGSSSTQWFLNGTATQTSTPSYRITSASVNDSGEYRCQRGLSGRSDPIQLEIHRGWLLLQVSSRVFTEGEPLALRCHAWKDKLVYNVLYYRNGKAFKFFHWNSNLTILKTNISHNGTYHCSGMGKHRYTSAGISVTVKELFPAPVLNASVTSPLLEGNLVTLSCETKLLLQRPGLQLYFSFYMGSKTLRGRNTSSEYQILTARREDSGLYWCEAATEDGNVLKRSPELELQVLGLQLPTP

[5] = target: HER2 on human cancer cell lines (NCI-N87, BT474, SK-OV-3, SNU-1, SNU-5, SNU-601) (human) (UniProt P04626); assay: flow cytometry Fc load, SNU5 cells
[6] = target: HER2 on human cancer cell lines (NCI-N87, BT474, SK-OV-3, SNU-1, SNU-5, SNU-601) (human) (UniProt P04626); assay: flow cytometry Fc load, SNU-1 cells
[7] = target: HER2 on human cancer cell lines (NCI-N87, BT474, SK-OV-3, SNU-1, SNU-5, SNU-601) (human) (UniProt P04626); assay: flow cytometry Fc load, SK-OV-3 cells
[8] = target: HER2 on human cancer cell lines (NCI-N87, BT474, SK-OV-3, SNU-1, SNU-5, SNU-601) (human) (UniProt P04626); assay: flow cytometry Fc load, SNU-5 cells
[9] = target: HER2 on human cancer cell lines (NCI-N87, BT474, SK-OV-3, SNU-1, SNU-5, SNU-601) (human) (UniProt P04626); assay: flow cytometry Fc load, BT474 cells
[10] = target: HER2 on human cancer cell lines (NCI-N87, BT474, SK-OV-3, SNU-1, SNU-5, SNU-601) (human) (UniProt P04626); assay: flow cytometry Fc load, NCI-N87 cells
[11] = target: human HER2 recombinant protein (R&D systems, 1129-ER) (human) (UniProt P04626); assay: BLI sequential binding on HER2-loaded sensor

human FcγIIA (R&D systems, 1330-CD) (human), sequence (P12318 36-218 H167R): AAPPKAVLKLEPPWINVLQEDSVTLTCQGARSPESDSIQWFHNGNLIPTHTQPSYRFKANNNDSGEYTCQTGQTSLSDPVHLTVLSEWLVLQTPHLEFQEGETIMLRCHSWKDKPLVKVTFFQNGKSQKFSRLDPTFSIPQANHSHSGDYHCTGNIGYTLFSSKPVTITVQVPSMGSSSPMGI

Row | Substance | GMFI [1] | GMFI [2] | Kd [3] | Kd [4] | GMFI [5] | GMFI [6] | GMFI [7] | GMFI [8] | GMFI [9] | GMFI [10] | binding signal (nm shift, value at 4140 s minus value at 1260 s) [11]
1 | human IgG1 (Bio X cell, BE0297) (antibody) | 173 | 150 | 310 nM | 2.46 nM | 101 | – | – | – | – | – | –
2 | pertuzumab (antibody) | – | – | 359 nM | – | – | – | – | – | – | – | –
3 | trastuzumab + pertuzumab (combination) | – | – | – | – | – | 2690 | 6450 | 1390 | 38700 | 137000 | 0.923 nm
